# According to US20240018247A1 (MUSC FOUNDATION FOR RESEARCH DEVELOPMENT, published 2024):
# T1: human P-selectin (human, UniProt P16109 42-771, limits assumed)
# T1 construct: also called human P-selectin antigen
# T1 sequence (looked up): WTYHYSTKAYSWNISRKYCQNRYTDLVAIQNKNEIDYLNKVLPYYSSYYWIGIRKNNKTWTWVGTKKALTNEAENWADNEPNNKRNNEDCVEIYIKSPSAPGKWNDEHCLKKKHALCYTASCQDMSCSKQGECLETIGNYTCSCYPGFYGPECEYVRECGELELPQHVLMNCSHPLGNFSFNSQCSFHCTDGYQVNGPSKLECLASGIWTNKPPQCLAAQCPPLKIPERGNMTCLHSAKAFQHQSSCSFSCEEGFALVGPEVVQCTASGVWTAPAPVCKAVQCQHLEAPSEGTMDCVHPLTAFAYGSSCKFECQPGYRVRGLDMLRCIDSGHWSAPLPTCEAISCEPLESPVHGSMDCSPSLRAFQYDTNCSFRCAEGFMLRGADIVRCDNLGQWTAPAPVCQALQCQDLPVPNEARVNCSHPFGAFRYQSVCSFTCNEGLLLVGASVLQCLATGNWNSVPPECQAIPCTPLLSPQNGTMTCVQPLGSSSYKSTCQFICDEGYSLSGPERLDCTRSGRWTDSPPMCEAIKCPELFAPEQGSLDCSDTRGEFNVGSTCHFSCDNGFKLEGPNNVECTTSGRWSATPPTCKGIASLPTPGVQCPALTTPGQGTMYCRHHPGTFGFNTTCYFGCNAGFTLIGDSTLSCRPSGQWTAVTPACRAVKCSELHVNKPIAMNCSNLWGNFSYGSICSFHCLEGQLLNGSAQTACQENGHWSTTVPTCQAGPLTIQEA
# T2: P-Selectin-His tag (mouse) (mouse, UniProt Q01102 42-709, limits assumed)
# T2 construct: also called mouse P-selectin; mouse antigen P-Selectin; not shown: His tag
# T2 sequence (looked up): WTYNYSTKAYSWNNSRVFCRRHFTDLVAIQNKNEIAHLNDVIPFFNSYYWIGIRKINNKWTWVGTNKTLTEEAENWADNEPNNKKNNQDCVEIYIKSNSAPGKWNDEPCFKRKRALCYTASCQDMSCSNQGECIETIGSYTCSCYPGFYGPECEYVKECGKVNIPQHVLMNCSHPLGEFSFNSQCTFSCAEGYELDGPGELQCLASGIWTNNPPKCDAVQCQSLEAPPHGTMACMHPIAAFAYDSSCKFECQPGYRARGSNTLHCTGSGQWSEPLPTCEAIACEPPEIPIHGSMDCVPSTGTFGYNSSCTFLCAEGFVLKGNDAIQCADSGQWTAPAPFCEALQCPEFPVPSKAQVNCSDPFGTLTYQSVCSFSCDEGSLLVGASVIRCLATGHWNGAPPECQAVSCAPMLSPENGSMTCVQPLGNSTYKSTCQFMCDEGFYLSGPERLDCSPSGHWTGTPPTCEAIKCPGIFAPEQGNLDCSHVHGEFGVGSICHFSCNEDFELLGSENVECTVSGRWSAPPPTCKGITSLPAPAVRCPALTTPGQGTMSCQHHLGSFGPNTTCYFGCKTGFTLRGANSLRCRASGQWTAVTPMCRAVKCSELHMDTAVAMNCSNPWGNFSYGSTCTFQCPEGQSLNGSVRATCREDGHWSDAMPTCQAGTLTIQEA
# B1: NB.PSelscFv-Crry (anti-pselectin 2.3scFv-Crry, non-blocking) (scFv)
# chain: QIQLVLSGPELKKPGESVKISCKASGYTFTTYGMSWVKQAPGKGLKWMGWINTSSGVPTYADDFKGRFAFSLETSASTAYLQINNLKNEDTATYFCARGGGYYGAYYFYYWGQGTTLTVSSGGGGSGGGGSGGGGSDIQMTQSPASLSASVGETVTITCRTSDNINSYLAWYLQRQGKSPQLLVYNAKTLTEGVPSRFSGSGSGTQFSLKINSLQPEDFGSYYCQHHYGPPPTFGGGTKLEIKGGGGSGGGGSCPAPSQLPSAKPINLTDESMFPIGTYLLYECLPGYIKRQFSITCKQDSTWTSAEDKCIRKQCKTPSDPENGLVHVHTGIQFGSRINYTCNQGYRLIGSSSAVCVITDQSVDWDTEAPICEWIPCEIPPGIPNGDFFSSTREDFHYGMVVTYRCNTDARGKALFNLVGEPSLYCTSNDGEIGVWSGPPPQCIELNKCTPPPYVENAVMLSENRSLFSLRDIVEFRCHPGFIMKGASSVHCQSLNKWEPELPSCFKGVICRLPQEMSGFQKGLGMKKEYYYGENVTLECEDGYTLEGSSQSQCQSDGSWNPLLAKCVSRSIIEGRHHHHHH
# notes: also called Psel.NB; Psel-NB
# What was measured:
# [1] = target: T1, human P-selectin; experiment: ELISA binding assay on human P-selectin, OD 450
# Procedure: To evaluate the ability of B.PselscFv-Crry and NB.PselscFv-Crry to inhibit complement activation, a zymosan A bead assay was performed. Briefly, flow cytometric analysis of C3 deposition on zymosan A particles (SigmaAldrich) was performed and the extent of complement inhibition was normalized by the subtraction of post-IRI complement deposition levels from their baseline levels. Both B.PSelscFv-Crry and NB.PSelscFv-Crry constructs inhibit complement activation in a dose-dependent manner (FIG. 21A). Further, to evaluate the binding of B.PselscFv-Crry and NB.PselscFv-Crry to human P-selectin, an ELISA was performed. Briefly, non-blocking and blocking fusion proteins (NB.PselscFv-Crry and B.PselscFv-Crry, respectively) were plated at varying doses in addition to varying doses of C2-Crry as a negative control.
# [2] = target: T2, P-Selectin-His tag (mouse); experiment: SPRi (PlexArray HT), mouse P-Selectin-His printed on chip, fusion protein as analyte, 25 C
# Procedure: FIG. 20A through FIG. 20C depict a representative experimental evaluation of the binding affinity of mouse antigen P-Selectin to B.PselscFv-Crry and NB.PselscFv-Crry. SPR binding assays were performed to measure binding affinity KD and kinetic parameters ka, kd of B.PselscFv-Crry and NB.PselscFv-Crry. The ligand is P-Selectin-His tag (mouse) which was printed onto the chip. The analytes are B.PselscFv-Crry and NB.PselscFv-Crry. After data collection with SPR and kinetics fitting and analysis, the KD, ka, and kd were calculated. FIG. 20A depicts exemplary kinetics fitting curves of P-Selectin to B.PselscFv-Crry. FIG. 20B depicts exemplary kinetics fitting curves of P-Selectin to NB.PselscFv-Crry.
# To measure binding affinity, surface plasmon resonance was used with mouse P-selectin as the immobilized ligand and B.PselscFv-Crry (FIG. 20A) and NB.PselscFv-Crry (FIG. 20B) as the analytes. Various concentrations of P-Selectin dissolved in water were manually printed onto the bare gold-coated (thickness 47 nm) PlexArray Nanocapture Sensor Chip (Plexera Bioscience, Seattle, WA, US) at 40% humidity. Each concentration was printed in replicate, and each spot contained 0.2 μL of sample solution. The chip was incubated in 80% humidity at 4° C. for overnight, and rinsed with 10×PBST for 10 min, 1×PBST for 10 min, and deionized water twice for 10 min. The chip was then blocked with 5% (w/v) non-fat milk in water overnight, and washed with 10×PBST for 10 min, 1×PBST for 10 min, and deionized water twice for 10 min before being dried under a stream of nitrogen prior to use. SPRi measurements were performed with PlexAray HT (Plexera Bioscience, Seattle, WA, US). Collimated light (660 nm) passes through the coupling prism, reflects off the SPR-active gold surface, and is received by the CCD camera. Buffers and samples were injected by a non-pulsatile piston pump into the 30 μL flowcell that was mounted on the coupling prim.
binder,measurement,setting,value
B1,EC50 (read off the curve),[1],~0.06 µg/mL
same,Kd,[2],630 nM
same,koff,[2],0.00179 s⁻¹
same,kon,[2],2840 M⁻¹ s⁻¹
